Laboratory results: patent US20090170751A1

Molecular target: Plasma fibronectin, affinity purified from human plasma (human) (UniProt P02751)
Assay: cell-based or functional assay

Sequence of Recombinant Anastellin, P02751 631-703 (P02751 other isoform, or with tags, fused parts or gaps limits assumed): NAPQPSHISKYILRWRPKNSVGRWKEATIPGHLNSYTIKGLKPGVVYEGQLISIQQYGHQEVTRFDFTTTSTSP
Sequence of Plasma fibronectin, affinity purified from human plasma (human) (P02751 32-2477): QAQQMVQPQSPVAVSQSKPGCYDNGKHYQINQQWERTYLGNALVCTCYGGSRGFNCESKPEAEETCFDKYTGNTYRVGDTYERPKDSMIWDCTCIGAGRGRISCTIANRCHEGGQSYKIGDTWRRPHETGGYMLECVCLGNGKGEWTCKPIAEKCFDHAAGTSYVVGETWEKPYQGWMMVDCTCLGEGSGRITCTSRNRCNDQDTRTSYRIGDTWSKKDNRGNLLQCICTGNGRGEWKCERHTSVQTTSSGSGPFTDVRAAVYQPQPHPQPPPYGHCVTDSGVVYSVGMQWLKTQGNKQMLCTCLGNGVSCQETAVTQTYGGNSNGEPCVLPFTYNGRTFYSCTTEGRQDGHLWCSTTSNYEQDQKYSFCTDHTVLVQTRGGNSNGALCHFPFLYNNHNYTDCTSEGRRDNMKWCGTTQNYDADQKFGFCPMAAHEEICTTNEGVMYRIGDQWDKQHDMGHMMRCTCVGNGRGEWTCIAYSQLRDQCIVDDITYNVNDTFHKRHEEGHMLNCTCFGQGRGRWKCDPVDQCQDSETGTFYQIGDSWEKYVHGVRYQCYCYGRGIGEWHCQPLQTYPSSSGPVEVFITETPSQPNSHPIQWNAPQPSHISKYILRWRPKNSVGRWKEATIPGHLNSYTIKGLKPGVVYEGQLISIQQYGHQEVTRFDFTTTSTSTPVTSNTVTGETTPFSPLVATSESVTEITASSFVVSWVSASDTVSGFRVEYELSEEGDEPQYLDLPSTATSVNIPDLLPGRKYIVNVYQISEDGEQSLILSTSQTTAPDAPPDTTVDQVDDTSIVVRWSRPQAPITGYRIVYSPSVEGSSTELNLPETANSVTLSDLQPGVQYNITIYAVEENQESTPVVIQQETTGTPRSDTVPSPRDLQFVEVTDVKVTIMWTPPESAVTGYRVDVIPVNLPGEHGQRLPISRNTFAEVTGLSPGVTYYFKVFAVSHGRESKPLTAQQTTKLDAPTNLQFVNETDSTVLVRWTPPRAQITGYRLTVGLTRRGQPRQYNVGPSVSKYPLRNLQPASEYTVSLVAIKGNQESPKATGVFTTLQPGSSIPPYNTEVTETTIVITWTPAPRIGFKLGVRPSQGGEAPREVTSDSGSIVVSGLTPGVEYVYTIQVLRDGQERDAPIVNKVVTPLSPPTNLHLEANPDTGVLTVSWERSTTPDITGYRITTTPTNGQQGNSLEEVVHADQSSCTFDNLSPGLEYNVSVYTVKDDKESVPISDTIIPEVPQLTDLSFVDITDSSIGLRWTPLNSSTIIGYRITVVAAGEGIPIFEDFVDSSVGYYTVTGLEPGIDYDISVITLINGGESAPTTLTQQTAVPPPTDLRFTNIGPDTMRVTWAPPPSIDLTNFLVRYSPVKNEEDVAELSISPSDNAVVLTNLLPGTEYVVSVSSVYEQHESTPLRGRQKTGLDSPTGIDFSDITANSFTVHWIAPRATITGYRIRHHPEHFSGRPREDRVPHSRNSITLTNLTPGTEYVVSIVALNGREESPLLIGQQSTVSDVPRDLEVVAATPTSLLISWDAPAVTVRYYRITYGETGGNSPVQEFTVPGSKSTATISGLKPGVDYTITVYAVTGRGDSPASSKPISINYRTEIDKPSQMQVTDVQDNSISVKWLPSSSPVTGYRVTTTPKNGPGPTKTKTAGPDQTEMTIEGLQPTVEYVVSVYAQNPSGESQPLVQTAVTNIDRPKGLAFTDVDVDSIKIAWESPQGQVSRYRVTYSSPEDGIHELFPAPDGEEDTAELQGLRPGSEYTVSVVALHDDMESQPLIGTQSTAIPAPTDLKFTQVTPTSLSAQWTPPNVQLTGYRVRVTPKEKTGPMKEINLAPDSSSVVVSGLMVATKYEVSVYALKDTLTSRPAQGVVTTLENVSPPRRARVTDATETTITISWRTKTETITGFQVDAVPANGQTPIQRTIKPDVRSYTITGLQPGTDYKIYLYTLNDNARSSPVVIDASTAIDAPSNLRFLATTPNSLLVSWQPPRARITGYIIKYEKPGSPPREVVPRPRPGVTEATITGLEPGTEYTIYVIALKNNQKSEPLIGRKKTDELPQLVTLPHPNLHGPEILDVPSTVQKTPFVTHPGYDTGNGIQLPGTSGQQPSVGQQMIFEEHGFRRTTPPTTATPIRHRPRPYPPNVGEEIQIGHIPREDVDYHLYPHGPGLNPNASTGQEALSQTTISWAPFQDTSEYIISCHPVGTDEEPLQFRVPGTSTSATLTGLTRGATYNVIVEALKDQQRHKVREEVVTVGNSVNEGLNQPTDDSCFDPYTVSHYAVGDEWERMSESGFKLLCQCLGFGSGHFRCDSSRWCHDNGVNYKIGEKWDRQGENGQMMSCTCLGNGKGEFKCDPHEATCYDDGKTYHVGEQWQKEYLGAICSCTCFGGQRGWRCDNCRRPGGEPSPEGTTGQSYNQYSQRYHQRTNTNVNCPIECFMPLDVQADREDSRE

Question: How did the fibronectin aggregation, increase in absorbance at 600 nm turn out when Recombinant Anastellin, P02751 631-703 was run?
Answer: The fibronectin aggregation, increase in absorbance at 600 nm was > 20 µM.
